According to patent US20170088624A1 (Janssen / Centocor, published 2017):
Numbering of substitutions follows the chain as printed.

T1: Macaca fascicularis (cyno) CD40 (cCD40) on cells (Macaca fascicularis (cynomolgus), UniProt P25942 21-277 (human entry))
T1 construct: CD40 on cyno mature DCs
T1 chain: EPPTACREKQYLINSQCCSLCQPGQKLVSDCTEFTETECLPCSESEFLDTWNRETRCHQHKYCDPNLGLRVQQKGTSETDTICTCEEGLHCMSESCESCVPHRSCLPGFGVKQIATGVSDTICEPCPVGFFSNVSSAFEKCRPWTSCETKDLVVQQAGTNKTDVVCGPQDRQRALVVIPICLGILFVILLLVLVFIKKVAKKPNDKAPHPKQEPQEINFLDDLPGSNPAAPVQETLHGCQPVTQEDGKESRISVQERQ

T2: cyno CD40 (SPR analyte) (Macaca fascicularis (cynomolgus), UniProt P25942 21-193 (human entry), limits assumed)
T2 construct: also called cCD40-ECD
T2 chain: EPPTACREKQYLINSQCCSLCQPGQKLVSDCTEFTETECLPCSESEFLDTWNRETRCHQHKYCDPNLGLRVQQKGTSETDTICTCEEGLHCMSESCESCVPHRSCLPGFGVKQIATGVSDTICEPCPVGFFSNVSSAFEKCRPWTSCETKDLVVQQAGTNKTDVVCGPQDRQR

B1: C40M62 (antibody, human IgG1, kappa, V domains shown)
VH: QVQLVQSGAEVKKPGSSVKVSCKASGGTFSSYAISWVRQAPGQGLEWMGGIIPIFGTANYAQKFQGRVTITADESTSTAYMELSSLRSEDTAVYYCARVANAAYFRSGLDYWGQGTLVTVSS
VL: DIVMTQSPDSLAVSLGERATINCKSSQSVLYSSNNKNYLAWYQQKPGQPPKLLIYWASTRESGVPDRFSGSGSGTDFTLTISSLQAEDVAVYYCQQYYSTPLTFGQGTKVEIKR
notes: Full-length IgG1/kappa; from phage display
B2: C40M105 (antibody, human IgG1, lambda, V domains shown)
VH: QLQLQESGPGLVKPSETLSLTCTVSGGSISSSSYYWGWIRQPPGKGLEWIGNIYYRGDTYYSPSLKSRVTISVDTSKNQFSLKLSSVTAADTAVYYCARGFRFDYWGQGTLVTVSS
VL: QSALTQPPSASGSPGQSVTISCTGTSSDVGGYNYVSWYQQHPGKAPKLMIYEVSKRPSGVPDRFSGSKSGNTASLTVSGLQAEDEADYYCSSYAGSNNLVFGGGTKLTVLG
B3: C40M102 (antibody, human IgG1, lambda, V domains shown)
VH: EVQLVESGGGLVQPGGSLRLSCAASGFTFSSYAMSWVRQAPGKGLEWVSIINNNVGRTYYADSVKGRFTISRDNSKNTLYLQMNSLRAEDTAVYYCAKEGGDYYYYGMDVWGQGTTVTVSS
VL: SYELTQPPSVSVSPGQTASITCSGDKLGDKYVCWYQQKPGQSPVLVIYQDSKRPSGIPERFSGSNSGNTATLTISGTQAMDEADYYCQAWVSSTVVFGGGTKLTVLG
notes: Variant of C40M18 (VH C40H48, VL C40L70); cloned as IgG1
B4: C40M18 (antibody, human IgG1, lambda, V domains shown)
VH: B3 VH
VL: SYELTQPPSVSVSPGQTASITCSGDKLGDKYVCWYQQKPGQSPVVVIYQDSKRPSGIPERFSGSNSGNTATLTISGTQAMDEAYYYCQAWVSSTVVFGGGTKLTVLG
notes: Full-length IgG1/lambda; from OmniRat (OMT); VH C40H48, VL C40L64
B5: C40M103 (antibody, human IgG1, lambda, V domains shown)
VH: B3 VH
VL: B4 VL with C33S, V45L, Y84D
notes: Variant of C40M18 (VH C40H48, VL C40L69; LCDR1 cysteine mutated); cloned as IgG1
B6: C40M104 (antibody, human IgG1, lambda, V domains shown)
VH: B3 VH
VL: B4 VL with C33S
notes: Variant of C40M18 (VH C40H48, VL C40L68; LCDR1 cysteine mutated); cloned as IgG1

Tests used:
[1] = biological target: T3, Full length human CD40 (huCD40) on cells (human, UniProt P25942 21-277); assay: cell-based or functional assay
[2] = biological target: T3, Full length human CD40 (huCD40) on cells; assay: cell-based or functional assay; remark: listed apart in the source
[3] = biological target: T3, Full length human CD40 (huCD40) on cells; assay: flow cytometry, Raji cells
[4] = biological target: T1, Macaca fascicularis (cyno) CD40 (cCD40) …; assay: flow cytometry, cyno mature DCs
Description: (§1) Human monocytes were isolated from either frozen/fresh PBMC using CD14 negative isolation kit per manufacturer's protocol (MACS Miltenyi). Cyno monocytes were isolated from fresh PBMC using CD14 positive isolation kit per manufacturer's protocol (MACS Miltenyi). To generate DCs, monocytes were cultured for 5 days in complete media RPMI (Invitrogen) in the presence of 100 ng/ml human GM-CSF and human IL-4 (Peprotech) and media was replenished every 2 days. On day 5, DCs were stimulated with 100 ng/ml LPS (Sigma) for 24 hours. Cells were then stained with each of the tested CD40 antibody at different concentration in flow cytometry buffer (PBS+1% FBS; BD Bioscience) in 100 μl volume for 30 minutes on ice followed with two washes with flow buffer. Cells were then stained for additional 30 minutes on ice with APC-conjugated anti human IgG (Jackson ImmunoResearch) at the recommended dilution 1:100 and washed twice with flow buffer. Cells were analyzed for percent positive and Mean Fluorescence Intensity (MFI) to determine the antibody binding using Fortessa (BD Bioscience).
(§2) The experiments were conducted using assays described above. 20 antibodies were characterized further based on their binding to human DCs, cyno DCs, Raji cells and HEK-Blue™ CD40L cells.

[5] = biological target: T3, Full length human CD40 (huCD40) on cells; assay: flow cytometry, human mature DCs
Description: as §1, §2

[6] = biological target: T3, Full length human CD40 (huCD40) on cells; assay: flow cytometry, HEK-Blue CD40L cells
[7] = biological target: T4, human CD40 (SPR analyte) (human, UniProt P25942 21-193); assay: SPR ProteOn XPR36, mAb captured by anti-human IgG Fc, CD40 as analyte, 25 C
T4 construct: also called huCD40-ECD
Description: (§3) Affinity measurements were performed using Surface Plasmon Resonance (SPR) using a ProteOn XPR36 system (BioRad). […] Approximately 5000 RU (response units) of mAbs were immobilized. The kinetic experiments were performed at 25° C. in running buffer (DPBS+0.01% P20+100 μg/ml BSA). To perform kinetic experiments, 200 RU of mAbs were captured followed by injections of analytes (human or cyno CD40) at 5 concentrations (in a 4-fold serial dilution). The association phase was monitored for 3 minutes at 50 μL/min, then followed by 15 minutes of buffer flow (dissociation phase). The chip surface was regenerated with two 18 second pulses of 100 mM H₃PO₄ (Sigma, Cat#7961) at 100 μL/min.
(§4) The collected data were processed using ProteOn Manager software. First, the data was corrected for background using inter-spots. Then, double reference subtraction of the data was performed by using the buffer injection for analyte injections. The kinetic analysis of the data was performed using a Langmuir 1:1 binding model. The result for each mAb was reported in the format of Ka (On-rate), Kd (Off-rate) and KD (equilibrium dissociation constant).
(§5) The parameters reported in this table were obtained from a 1:1 Langmuir binding model for all samples. Affinity, KD=kd/ka.

[8] = biological target: T2, cyno CD40 (SPR analyte); assay: SPR ProteOn XPR36, mAb captured, cyno CD40 as analyte, 25 C; did not fit well to 1:1 model
Description: as §3, §4, §5

[9] = biological target: T3, Full length human CD40 (huCD40) on cells; assay: cell-based or functional assay; remark: listed apart in the source
Target sequence in this assay (P25942 21-277): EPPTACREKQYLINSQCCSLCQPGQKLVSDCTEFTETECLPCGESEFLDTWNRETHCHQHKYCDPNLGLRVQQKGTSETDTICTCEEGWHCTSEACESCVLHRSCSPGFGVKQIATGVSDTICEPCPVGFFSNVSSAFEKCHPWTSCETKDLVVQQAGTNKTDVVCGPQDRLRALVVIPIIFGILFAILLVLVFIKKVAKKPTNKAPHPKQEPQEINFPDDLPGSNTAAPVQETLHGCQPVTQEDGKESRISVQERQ

[10] = biological target: T3, Full length human CD40 (huCD40) on cells; assay: flow cytometry, human DCs
Target sequence in this assay (P25942 21-277): as above

[11] = biological target: T3, Full length human CD40 (huCD40) on cells; assay: flow cytometry, human B cells
Target sequence in this assay (P25942 21-277): as above

[12] = biological target: T3, Full length human CD40 (huCD40) on cells; assay: flow cytometry, HEK-Blue CD40L cells; remark: listed apart in the source
Target sequence in this assay (P25942 21-277): as above

[13] = biological target: T2, cyno CD40 (SPR analyte); assay: SPR ProteOn XPR36, mAb captured by anti-human IgG Fc, cyno CD40 as analyte, 25 C
Description: as §3, §4

| Binder | B cells EC50, CD23 surface expression, with cross-linker [1] | B cells EC50, CD80 surface expression, with cross-linker [1] | B cells EC50, CD83 surface expression, with cross-linker [1] | B cells EC50, CD86 surface expression, with cross-linker [1] | B cells EC50, HLA-DR surface expression, with cross-linker [1] | DC EC50, CD80 surface expression, with cross-linker [2] | DC EC50, CD83 surface expression, with cross-linker [2] | DC EC50, CD86 surface expression, with cross-linker [2] | DC EC50, HLA-DR surface expression, with cross-linker [2] | EC50 [3] | EC50 [4] | EC50 [5] | EC50 [6] | Kd [7] | EC50, Human B cells (CD83) [9] | EC50, Human DC (HLA-DR) [9] | EC50, agonistic activity on HEK-Blue™ CD40L cells (NF-κB/SEAP) [9] | EC50 [10] | EC50 [11] | EC50 [12] | further results |
| --- | --- | --- | --- | --- | --- | --- | --- | --- | --- | --- | --- | --- | --- | --- | --- | --- | --- | --- | --- | --- | --- |
| B1 | 0.0125 µg/mL | 0.00154 µg/mL | 0.00126 µg/mL | 0.00113 µg/mL | 0.000356 µg/mL | 0.602 µg/mL | 0.218 µg/mL | 0.381 µg/mL | 0.0604 µg/mL | 0.0994 µg/mL | 0.0716 µg/mL | 0.329 µg/mL | 0.228 µg/mL | 13.1 nM | – | – | – | – | – | – | koff [7]: 0.00247 s⁻¹; kon [7]: 189000 M⁻¹ s⁻¹; Kd [8]: 2.64 nM; koff [8]: 0.000908 s⁻¹; kon [8]: 343000 M⁻¹ s⁻¹ |
| B2 | – | – | – | – | – | – | – | – | – | – | – | – | – | – | 0.00282 µg/mL | 2.97 µg/mL | 0.0173 µg/mL | 5.76 µg/mL | 6.65 µg/mL | 2.16 µg/mL | – |
| B3 | – | – | – | – | – | – | – | – | – | – | – | – | – | – | 0.0239 µg/mL | 0.367 µg/mL | 0.0751 µg/mL | 0.438 µg/mL | 0.159 µg/mL | 0.162 µg/mL | – |
| B4 | 0.306 µg/mL | 0.0481 µg/mL | 0.0624 µg/mL | 0.00873 µg/mL | 0.0239 µg/mL | 0.0523 µg/mL | 0.0478 µg/mL | 0.0302 µg/mL | 0.0105 µg/mL | 0.073 µg/mL | 0.0389 µg/mL | 0.352 µg/mL | 0.126 µg/mL | 0.151 nM | 0.0226 µg/mL | 0.166 µg/mL | 0.0696 µg/mL | 0.267 µg/mL | 0.11 µg/mL | 0.15 µg/mL | koff [7]: 0.000162 s⁻¹; kon [7]: 1.07e+06 M⁻¹ s⁻¹; Kd [13]: 0.0712 nM; koff [13]: 9.41e-05 s⁻¹; kon [13]: 1.32e+06 M⁻¹ s⁻¹ |
| B5 | – | – | – | – | – | – | – | – | – | – | – | – | – | – | 0.00479 µg/mL | 0.388 µg/mL | 0.00274 µg/mL | 0.143 µg/mL | 0.075 µg/mL | 0.112 µg/mL | – |
| B6 | – | – | – | – | – | – | – | – | – | – | – | – | – | – | 0.0167 µg/mL | 0.166 µg/mL | 0.0308 µg/mL | 0.253 µg/mL | 0.11 µg/mL | 0.177 µg/mL | – |
